Assay results reported in the supplement of paper PMC9112550, “Optimization of the antimicrobial peptide Bac7 by deep mutational scanning” (BMC Biology, 2022).

Each sequence was assayed on Escherichia coli TOP10 (assay: shrunken log2 fold change of peptide-encoding DNA abundance (4.5 h post-induction vs induction); higher = less antimicrobial activity (less host growth inhibition)). Conditions: time post-induction: 4.5 h; library: site-saturation at positions 5, 18, 19, 20.
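Note: peptides expressed intracellularly from a pBAD plasmid library in pooled LB shake-flask culture, induced with 0.3% L-arabinose, DNA abundance read by NGS, three biological replicates, DESeq2 with apeglm shrinkage.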

| Sequence | shrunken log2 fold change |
| --- | --- |
| RRIRDRPPRLPRPRPRPEPNPRP | 0.746 |
| RRIRLRPPRLPRPRPRPLASPRP | 0.177 |
| RRIRERPPRLPRPRPRPSDMPRP | -0.0552 |
| RRIRWRPPRLPRPRPRPSPYPRP | -0.25 |
| RRIRRRPPRLPRPRPRPDNWPRP | 0.000556 |
| RRIRNRPPRLPRPRPRPMTAPRP | -0.167 |
| RRIRLRPPRLPRPRPRPGSKPRP | -0.559 |
| RRIRQRPPRLPRPRPRPNTAPRP | -0.0235 |
| RRIRTRPPRLPRPRPRPIFNPRP | -0.608 |
| RRIRYRPPRLPRPRPRPKVHPRP | -0.677 |
| RRIRARPPRLPRPRPRPPAKPRP | 1.12 |
| RRIRYRPPRLPRPRPRPEMHPRP | 2.42 |
| RRIRNRPPRLPRPRPRPDMVPRP | 0.00433 |
| RRIRGRPPRLPRPRPRPNEHPRP | 0.435 |
| RRIRKRPPRLPRPRPRPWDHPRP | -0.0434 |
| RRIRLRPPRLPRPRPRPCNGPRP | -0.00674 |
| RRIRTRPPRLPRPRPRPMAVPRP | -0.296 |
| RRIRMRPPRLPRPRPRPNILPRP | 0.057 |
| RRIRSRPPRLPRPRPRPEQDPRP | 0.206 |
| RRIRIRPPRLPRPRPRPEKRPRP | -0.0249 |
| RRIRMRPPRLPRPRPRPFYHPRP | -0.537 |
| RRIRMRPPRLPRPRPRPVSKPRP | 0.0965 |
| RRIRRRPPRLPRPRPRPLQTPRP | 1.59 |
| RRIRDRPPRLPRPRPRPLEDPRP | -0.00783 |
| RRIRGRPPRLPRPRPRPQHFPRP | 0.139 |

| Sequence | shrunken log2 fold change |
| --- | --- |
| RRIRARPPRLPRPRPRPWPRPRP | 0.992 |
| RRIRSRPPRLPRPRPRPYFIPRP | -1.06 |
| RRIRQRPPRLPRPRPRPTFVPRP | -0.692 |
| RRIRNRPPRLPRPRPRPHTMPRP | -0.298 |
| RRIRDRPPRLPRPRPRPSRYPRP | -0.219 |
| RRIRARPPRLPRPRPRPRNAPRP | 0.485 |
| RRIRCRPPRLPRPRPRPKFAPRP | 0.0822 |
| RRIRIRPPRLPRPRPRPQFFPRP | -0.304 |
| RRIRLRPPRLPRPRPRPGNCPRP | -0.0913 |
| RRIRHRPPRLPRPRPRPVDHPRP | -0.0462 |
| RRIRMRPPRLPRPRPRPVHWPRP | 0.155 |
| RRIRTRPPRLPRPRPRPKTDPRP | -0.158 |
| RRIRARPPRLPRPRPRPLDSPRP | 0.166 |
| RRIRTRPPRLPRPRPRPQCVPRP | -0.12 |
| RRIRNRPPRLPRPRPRPVFGPRP | 0.106 |
| RRIRKRPPRLPRPRPRPKMRPRP | 0.56 |
| RRIRIRPPRLPRPRPRPNNAPRP | -0.444 |
| RRIRVRPPRLPRPRPRPEHNPRP | -0.244 |
| RRIRRRPPRLPRPRPRPPCTPRP | 1.59 |
| RRIRARPPRLPRPRPRPTPDPRP | 0.848 |
| RRIRARPPRLPRPRPRPNTKPRP | -0.124 |
| RRIRGRPPRLPRPRPRPYGNPRP | -0.102 |
| RRIRTRPPRLPRPRPRPPLRPRP | 0.314 |
| RRIRWRPPRLPRPRPRPNLDPRP | 0.278 |
| RRIRQRPPRLPRPRPRPGIGPRP | -0.005 |

| Sequence | shrunken log2 fold change |
| --- | --- |
| RRIRARPPRLPRPRPRPCILPRP | -1.06 |
| RRIRNRPPRLPRPRPRPPRRPRP | 0.518 |
| RRIRCRPPRLPRPRPRPTTQPRP | 0.0242 |
| RRIRARPPRLPRPRPRPIILPRP | -0.262 |
| RRIRTRPPRLPRPRPRPMSSPRP | -0.00458 |
| RRIRTRPPRLPRPRPRPFHYPRP | -0.0376 |
| RRIRCRPPRLPRPRPRPGIVPRP | -0.0688 |
| RRIRDRPPRLPRPRPRPCGGPRP | 0.132 |
| RRIRPRPPRLPRPRPRPKHDPRP | -0.0113 |
| RRIRCRPPRLPRPRPRPVHRPRP | -0.319 |
| RRIRHRPPRLPRPRPRPRQLPRP | 0.0862 |
| RRIRQRPPRLPRPRPRPFGSPRP | -0.156 |
| RRIRRRPPRLPRPRPRPPRMPRP | 0.94 |
| RRIRQRPPRLPRPRPRPDQSPRP | -0.222 |
| RRIRYRPPRLPRPRPRPQHTPRP | -0.671 |
| RRIRHRPPRLPRPRPRPIWYPRP | -0.75 |
| RRIRGRPPRLPRPRPRPSNNPRP | 0.0994 |
| RRIRPRPPRLPRPRPRPNMCPRP | -0.0958 |
| RRIRFRPPRLPRPRPRPSAMPRP | -0.0766 |
| RRIRPRPPRLPRPRPRPHIMPRP | -0.663 |
| RRIRMRPPRLPRPRPRPLNFPRP | -0.00433 |
| RRIRARPPRLPRPRPRPVKTPRP | 0.232 |
| RRIRARPPRLPRPRPRPQNGPRP | -0.106 |
| RRIRSRPPRLPRPRPRPWYCPRP | 0.017 |
| RRIRSRPPRLPRPRPRPFQRPRP | 0.101 |
